Test results from article PMC9416547 (Nucleic Acid Therapeutics, 2022).

Experiments:
[1] = target: T1, MBP-tagged NAT10 CTD (541-1025 AA) (UniProt Q9H0A0 541-1025); experiment: pull-down
T1 sequence (looked up): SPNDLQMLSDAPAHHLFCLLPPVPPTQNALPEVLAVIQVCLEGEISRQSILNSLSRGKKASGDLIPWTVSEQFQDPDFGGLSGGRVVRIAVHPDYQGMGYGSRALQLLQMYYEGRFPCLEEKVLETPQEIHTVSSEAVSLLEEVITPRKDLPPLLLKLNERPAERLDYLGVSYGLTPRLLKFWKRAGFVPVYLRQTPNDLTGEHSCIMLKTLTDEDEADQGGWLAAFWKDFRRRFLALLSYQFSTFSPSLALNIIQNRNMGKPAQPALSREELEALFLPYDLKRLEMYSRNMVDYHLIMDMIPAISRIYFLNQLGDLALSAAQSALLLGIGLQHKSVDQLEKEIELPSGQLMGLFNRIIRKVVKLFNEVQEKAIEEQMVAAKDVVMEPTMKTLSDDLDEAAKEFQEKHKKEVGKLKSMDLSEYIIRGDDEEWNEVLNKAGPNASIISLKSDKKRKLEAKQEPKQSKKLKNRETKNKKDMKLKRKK

[2] = target: T2, MBP-tagged full-length NAT10 (UniProt Q9H0A0 1-1025); experiment: pull-down
T2 sequence (looked up): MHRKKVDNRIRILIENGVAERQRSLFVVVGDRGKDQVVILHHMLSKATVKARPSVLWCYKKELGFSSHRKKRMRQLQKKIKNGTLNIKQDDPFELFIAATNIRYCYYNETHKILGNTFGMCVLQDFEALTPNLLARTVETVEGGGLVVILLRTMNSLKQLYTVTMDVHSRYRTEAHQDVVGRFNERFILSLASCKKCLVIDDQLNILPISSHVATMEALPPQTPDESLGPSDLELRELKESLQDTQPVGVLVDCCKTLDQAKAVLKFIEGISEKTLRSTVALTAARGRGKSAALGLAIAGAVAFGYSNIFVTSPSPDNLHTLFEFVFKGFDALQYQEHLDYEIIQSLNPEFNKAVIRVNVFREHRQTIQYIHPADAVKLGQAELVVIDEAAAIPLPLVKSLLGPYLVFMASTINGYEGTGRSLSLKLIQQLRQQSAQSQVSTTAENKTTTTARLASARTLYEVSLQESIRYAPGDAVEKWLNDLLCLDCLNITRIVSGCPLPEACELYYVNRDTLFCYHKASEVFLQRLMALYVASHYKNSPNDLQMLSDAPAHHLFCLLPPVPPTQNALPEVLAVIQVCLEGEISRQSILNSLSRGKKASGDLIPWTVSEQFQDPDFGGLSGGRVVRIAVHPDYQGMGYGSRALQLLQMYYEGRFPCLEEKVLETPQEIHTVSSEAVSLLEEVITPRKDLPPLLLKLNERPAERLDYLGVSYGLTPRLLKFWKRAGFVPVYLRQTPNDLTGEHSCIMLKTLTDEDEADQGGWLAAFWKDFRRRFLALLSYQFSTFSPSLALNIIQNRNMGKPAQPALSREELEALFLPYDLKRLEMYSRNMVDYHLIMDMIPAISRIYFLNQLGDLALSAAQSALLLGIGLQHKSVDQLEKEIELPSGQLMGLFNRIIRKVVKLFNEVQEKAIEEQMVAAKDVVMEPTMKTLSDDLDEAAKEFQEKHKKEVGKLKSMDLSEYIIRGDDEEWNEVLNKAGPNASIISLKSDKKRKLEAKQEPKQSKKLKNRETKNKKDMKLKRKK

B1: GST-fused full-length RNase H1 (enzyme, human, UniProt O60930 1-286, looked up)
chain: MSWLLFLAHRVALAALPCRRGSRGFGMFYAVRRGRKTGVFLTWNECRAQVDRFPAARFKKFATEDEAWAFVRKSASPEVSEGHENQHGQESEAKASKRLREPLDGDGHESAEPYAKHMKPSVEPAPPVSRDTFSYMGDFVVVYTDGCCSSNGRRRPRAGIGVYWGPGHPLNVGIRLPGRQTNQRAEIHAACKAIEQAKTQNINKLVLYTDSMFTINGITNWVQGWKKNGWKTSAGKEVINKEDFVALERLTQGMDIQWMHVPGHSGFIGNEEADRLAREGAKQSED
- binding result [1]: binds
- binding result [2]: binds
